Measured values published in the RNAGym collection of RNA variant scans (doi:10.1073/pnas.2313332121).

B1: TPR t1 (parent)
chain: GACCAAUCUGCCCUCAGAGCUCGAGAACAUCUUCGGAUGCAGAGGAGGCAGGCUUCGGUGGCGCGAUAGCGCCAACGUCCUCAACCUCCAAUGCAUCCCACCACAUGAUGAUGCCUGAAGAGCCUUGGUUUUUUG

Variants of: B1
Assay: polymerase ribozyme fitness, log enrichment relative to wild type (log ratio); higher = more active; in vitro selection for triplet polymerase activity
Procedure, shortened: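 A heterodimeric triplet polymerase ribozyme had each of its subunits mutagenized by PCR into a library, which was transcribed. One round of in vitro selection, done in triplicate, annealed each library with a biotinylated primer, its partner subunit and triplets, then incubated it frozen at −7 °C before gel excision of extended constructs, streptavidin-bead capture and RT-PCR. Fitness is the logarithm of genotype enrichment relative to wild-type enrichment, based on Illumina sequencing of inputs and outputs and inverse-variance-weighted replicate averages. A base-2 logarithm is used, and genotypes were kept only with ≥10 input reads and ≥1 read per output.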

First: C72U U78C C97A
Second: G57A C73U U78A C99U G128C
The “polymerase ribozyme fitness (log ratio)” value of the first is higher: -4.87 for the first, -6.66 for the second.

Compared with A5C C13U A83G, G63C A66U G77C A91C C94A is lower in “polymerase ribozyme fitness (log ratio)” value: -1.43 for the first, -6.25 for the second.

G45C U133G G135U and C4A A41C C64U are within 0.2 log units of each other in “polymerase ribozyme fitness (log ratio)” value: -1.52 for the first, -1.54 for the second.

Compared with A43G C53A, C64U A111C is higher in “polymerase ribozyme fitness (log ratio)” value: -2.39 for the first, 0.336 for the second.

Compared with C4G A5U U55C G113A, U33A G47A A121U is higher in “polymerase ribozyme fitness (log ratio)” value: -4.56 for the first, -3.55 for the second.

Compared with C49G G69U U125A G128A, C3U A6C U55C is higher in “polymerase ribozyme fitness (log ratio)” value: -3.1 for the first, -1.74 for the second.

First: A18U G120A
Second: C8U G47C C62U
The “polymerase ribozyme fitness (log ratio)” value of the first is higher: -1.14 for the first, -1.51 for the second.

Compared with C22U A26U C53U G69C A119G, G39U G71U is higher in “polymerase ribozyme fitness (log ratio)” value: -6.14 for the first, -1.16 for the second.

Compared with C56U C73U C76U, A37G C89A C102A C124U is lower in “polymerase ribozyme fitness (log ratio)” value: -2.54 for the first, -3.6 for the second.

Going from G1U to U7C A24U G61U, the “polymerase ribozyme fitness (log ratio)” value falls from 0.29 to -7.38.

Compared with C40G G48U C82A, U7G G51C is lower in “polymerase ribozyme fitness (log ratio)” value: -2.43 for the first, -2.99 for the second.

Compared with A6G G47U G71A, C97G G127U is lower in “polymerase ribozyme fitness (log ratio)” value: -2.24 for the first, -3.75 for the second.

Going from A5C U7C A74C A90U to A41C U106C A111C, the “polymerase ribozyme fitness (log ratio)” value falls from -1.47 to -2.11.

Compared with A2U C115G, C13U G39U U59A G128U is higher in “polymerase ribozyme fitness (log ratio)” value: -3.95 for the first, -1.64 for the second.

Compared with A24U A84U C114U G122A U132C, C12A C40U C89A U125A U130G is higher in “polymerase ribozyme fitness (log ratio)” value: -6.39 for the first, -5 for the second.

Going from U7C C72A A83G to C8G A18U C98U, the “polymerase ribozyme fitness (log ratio)” value falls from -0.327 to -2.18.

Going from G58C A111C U112C to C12G A27U C56U C101G C102A C104G C114U, the “polymerase ribozyme fitness (log ratio)” value falls from -0.0453 to -5.64.

Going from U7C G107A U109A to U7G U78C, the “polymerase ribozyme fitness (log ratio)” value rises from -4.11 to 0.451.

Compared with C80A C123U, C104U C115G is higher in “polymerase ribozyme fitness (log ratio)” value: -2.06 for the first, -1.22 for the second.

First: A2U C11A U33A A37U G61U G120A
Second: A43U G60A
The “polymerase ribozyme fitness (log ratio)” value of the first is lower: -4.91 for the first, -1.98 for the second.

Compared with G39A A50G C79A, A29U U38G G45U G120A U129A is lower in “polymerase ribozyme fitness (log ratio)” value: -2.95 for the first, -4.85 for the second.

First: C73A G135C
Second: A16C C82U G110A C123G U132A
The “polymerase ribozyme fitness (log ratio)” value of the first is higher: 0.342 for the first, -4.33 for the second.

Compared with C8A C28A C72U C123U, C73U A119U U126C is higher in “polymerase ribozyme fitness (log ratio)” value: -2.54 for the first, -0.929 for the second.

First: C62U U129G
Second: A2G C56A
The “polymerase ribozyme fitness (log ratio)” value of the first is lower: -1.28 for the first, -0.384 for the second.

First: C13A A46G G63C
Second: A46U G63A C85G A121C
The “polymerase ribozyme fitness (log ratio)” value of the first is lower: -2.95 for the first, -1.37 for the second.

First: U38A A111U
Second: U32G A119U
The “polymerase ribozyme fitness (log ratio)” value of the first is higher: -4.52 for the first, -6.21 for the second.

Going from A2C G61U to G122C, the “polymerase ribozyme fitness (log ratio)” value falls from -1.66 to -2.37.

Going from C13A G61C A90C to U7A G93C, the “polymerase ribozyme fitness (log ratio)” value rises from -5.48 to -0.696.

C4U G110A and C88U G120A G128A are within 0.2 log units of each other in “polymerase ribozyme fitness (log ratio)” value: -1.37 for the first, -1.29 for the second.

Going from G51U G127A to U9C G19C, the “polymerase ribozyme fitness (log ratio)” value rises from -4.52 to -2.29.

First: C13U A83G
Second: U67G C80G G113A
The “polymerase ribozyme fitness (log ratio)” value of the first is higher: 0.0266 for the first, -6.86 for the second.

Compared with G69U C85G C99U A100C G110A, G39C G69A C115U G120A is lower in “polymerase ribozyme fitness (log ratio)” value: -5.56 for the first, -6.08 for the second.

Compared with G39C U54A, A41G A83C C98U is lower in “polymerase ribozyme fitness (log ratio)” value: -0.125 for the first, -1.73 for the second.

Compared with U9G G57A C79A, U14C G44A A46U A75G A95U is lower in “polymerase ribozyme fitness (log ratio)” value: -1.03 for the first, -3.28 for the second.

First: G93A C114A G122A U131A
Second: C12U G51A U78C
The “polymerase ribozyme fitness (log ratio)” value of the first is lower: -3.27 for the first, -2.26 for the second.

Compared with G110A G117U, G47A U96G G120U is higher in “polymerase ribozyme fitness (log ratio)” value: -4.78 for the first, -1.94 for the second.

Going from C22U C56G G60A to G45U A46U C56A G93A, the “polymerase ribozyme fitness (log ratio)” value rises from -5.5 to -4.

Going from U14C C22U U32C to A24G U131A, the “polymerase ribozyme fitness (log ratio)” value rises from -5.53 to -2.25.

Going from G52C G69U C99U to G25C C34G C70A C104G G110U U116G, the “polymerase ribozyme fitness (log ratio)” value falls from -1.34 to -8.24.

First: G51U U59G G63C G77C C80U U87C C124G U131G
Second: G23U C31G C102G C124A
The “polymerase ribozyme fitness (log ratio)” value of the first is higher: -0.602 for the first, -6.83 for the second.

First: C8G C13U G47C
Second: G42U C79U A100U
The “polymerase ribozyme fitness (log ratio)” value of the first is higher: -0.248 for the first, -2.8 for the second.

With G17U C49U G93A the “polymerase ribozyme fitness (log ratio)” value was -4.22.
